Source: US20120090043A1, “TARGETS FOR RETROVIRUS ASSOCIATED DISEASES” (priority 2009, published 2012)

B1: LZTS2: human host interactor protein, Gene ID 84445, expressed from transfected ORF vector (protein)
chain: MAIVQTLPVPLEPAPEAATAPQAPVMGSVSSLISGRPCPGGPAPPRHHGPPGPTFFRQQDGLLRGGYEAQEPLCPAVPPRKAVPVTSFTYINEDFRTESPPSPSSDVEDAREQRAHNAHLRGPPPKLIPVSGKLEKNMEKILIRPTAFKPVLPKPRGAPSLPSFMGPRATGLSGSQGSLTQLFGGPASSSSSSSSSSAADKPLAFSGWASGCPSGTLSDSGRNSLSSLPTYSTGGAEPTTSSPGGHLPSHGSGRGALPGPARGVPTGPSHSDSGRSSSSKSTGSLGGRVAGGLLGSGTRASPDSSSCGERSPPPPPPPPSDEALLHCVLEGKLRDREAELQQLRDSLDENEATMCQAYEERQRHWQREREALREDCAAQAQRAQRAQQLLQLQVFQLQQEKRQLQDDFAQLLQEREQLERRCATLEREQRELGPRLEETKWEVCQKSGEISLLKQQLKESQAELVQKGSELVALRVALREARATLRVSEGRARGLQEAARARELELEACSQELQRHRQEAEQLREKAGQLDAEAAGLREPPVPPATADPFLLAESDEAKVQRAAAGVGGSLRAQVERLRVELQRERRRGEEQRDSFEGERLAWQAEKEQVIRYQKQLQHNYIQMYRRNRQLEQELQQLSLELEARELADLGLAEQAPCICLEEITATEI
B2: KRT8: human host interactor protein, Gene ID 3856, expressed from transfected ORF vector (protein)
chain: MSIRVTQKSYKVSTSGPRAFSSRSYTSGPGSRISSSSFSRVGSSNFRGGLGGGYGGASGMGGITAVTVNQSLLSPLVLEVDPNIQAVRTQEKEQIKTLNNKFASFIDKVRFLEQQNKMLETKWSLLQQQKTARSNMDNMFESYINNLRRQLETLGQEKLKLEAELGNMQGLVEDFKNKYEDEINKRTEMENEFVLIKKDVDEAYMNKVELESRLEGLTDEINFLRQLYEEEIRELQSQISDTSVVLSMDNSRSLDMDSIIAEVKAQYEDIANRSRAEAESMYQIKYEELQSLAGKHGDDLRRTKTEISEMNRNISRLQAEIEGLKGQRASLEAAIADAEQRGELAIKDANAKLSELEAALQRAKQDMARQLREYQELMNVKLALDIEIATYRKLLEGEESRLESGMQNMSIHTKTTSGYAGGLSSAYGGLTSPGLSYSLGSSFGSGAGSSSFSRTSSSRAVVVKKIETRDGKLVSESSDVLPK
B3: GCC1: human host interactor protein, Gene ID 79571, expressed from transfected ORF vector (protein)
chain: MEKFGMNFGGGPSKKDLLETIETQKKQLLQYQARLKDVVRAYKSLLKEKEALEASIKVLSVSHEADVGLAGVQLPGLTFPDSVDDRCSTHSEDSTGTATSLDTAASLTSTKGEFGVEDDRPARGPPPPKSEEASWSESGVSSSSGDGPFAGGEVDKRLHQLKTQLATLTSSLATVTQEKSRMEASYLADKKKMKQDLEDASNKAEEERARLEGELKGLQEQIAETKARLITQQHDRAQEQSDHALMLRELQKLLQEERTQRQDLELRLEETREALAGRAYAAEQMEGFELQTKQLTREVEELKSELQAIRDEKNQPDPRLQELQEEAARLKSHFQAQLQQEMRKTALAEDQLRQQSQVEEQRVAALENQISEVSELLGTYEKAKQKDQLAIQKLKERILQLDLENKTLALAASSRSPLDSHGEESSLDVNVLKDKMEKLKRLLQVAARKSQVTLDVEKLCDLEIMPSSEAADGEKATALYYQQELKQLKEEFERYKMRAQVVLKSKNTKDGNLGKELEAAQEQLAELKEKYISLRLSCEELEHQHQQEADDWKQELARLQQLHRQELERCQLDFRDRTLKLEEELHKQRDRALAVLTEKDLELEQLRSVALASGLPGRRSPVGGGGPGDPADTSSSDSLTQALQLAAANEPTFFLYAEQLARKEVEITSLRKQKHRLEVEVHQLQDRLLEEGERHREEVAALQSHIEKNIRDQSREGANLEYLKNIIYRFLTLPDSLGRQQTLTAILTILHFSPEEKQVIMRLPTSASWWPSGKR
B4: LNX2: human host interactor protein, Gene ID 222484, expressed from transfected ORF vector (protein)
chain: MGTTSDEMVSVEQTSSSSLNPLCFECGQQHWTRENHLYNYQNEVDDDLVCHICLQPLLQPLDTPCGHTFCYKCLRNFLQEKDFCPLDRKRLHFKLCKKSSILVHKLLDKLLVLCPFSSVCKDVMQRCDLEAHLKNRCPGASHRRVALERRKTSRTQAEIENENGPTLLDPAGTLSPEADCLGTGAVPVERHLTSASLSTWSEEPGLDNPAFEESAGADTTQQPLSLPEGEITTIEIHRSNPYIQLGISIVGGNETPLINIVIQEVYRDGVIARDGRLLAGDQILQVNNYNISNVSHNYARAVLSQPCNTLHLTVLRERRFGNRAHNHSDSNSPREEIFQVALHKRDSGEQLGIKLVRRTDEPGVFILDLLEGGLAAQDGRLSSNDRVLAINGHDLKYGTPELAAQIIQASGERVNLTIARPGKPQPGNTIREAGNHSSSSQHHTPPPYYSRPSSHKDLTQCVTCQEKHITVKKEPHESLGMTVAGGRGSKSGELPIFVTSVPPHGCLARDGRIKRGDVLLNINGIDLTNLSHSEAVAMLKASAASPAVALKALEVQIVEEATQNAEEQPSTFSENEYDASWSPSWVMWLGLPSTLHSCHDIVLRRSYLGSWGFSIVGGYEENHTNQPFFIKTIVLGTPAYYDGRLKCGDMIVAVNGLSTVGMSHSALVPMLKEQRNKVTLTVICWPGSLV
B5: TFIP11: human host interactor protein, Gene ID 24144, expressed from transfected ORF vector (protein)
chain: MSLSHLYRDGEGRIDDDDDERENFEITDWDLQNEFNPNRQRHWQTKEEATYGVWAERDSDDERPSFGGKRARDYSAPVNFISAGLKKGAAEEAELEDSDDEEKPVKQDDFPKDFGPRKLKTGGNFKPSQKGFAGGTKSFMDFGSWERHTKGIGQKLLQKMGYVPGRGLGKNAQGIINPIEAKQRKGKGAVGAYGSERTTQSMQDFPVVDSEEEAEEEFQKELSQWRKDPSGSKKKPKYSYKTVEELKAKGRISKKLTAPQKELSQVKVIDMTGREQKVYYSYSQISHKHNVPDDGLPLQSQQLPQSGKEAKAPGFALPELEHNLQLLIDLTEQEIIQNDRQLQYERDMVVNLFHELEKMTEVLDHEERVISNLSKVLEMVEECERRMQPDCSNPLTLDECARIFETLQDKYYEEYRMSDRVDLAVAIVYPLMKEYFKEWDPLKDCTYGTEIISKWKSLLENDQLLSHGGQDLSADAFHRLIWEVWMPFVRNIVTQWQPRNCDPMVDFLDSWVHIIPVWILDNILDQLIFPKLQKEVENWNPLTDTVPIHSWIHPWLPLMQARLEPLYSPIRSKLSSALQKWHPSDSSAKLILQPWKDVFTPGSWEAFMVKNIVPKLGMCLGELVINPHQQHMDAFYWVIDWEGMISVSSLVGLLEKHFFPKWLQVLCSWLSNSPNYEEITKWYLGWKSMFSDQVLAHPSVKDKFNEALDIMNRAVSSNVGAYMQPGARENIAYLTHTERRKDFQYEAMQERREAENMAQRGIGVAASSVPMNFKDLIETKAEEHNIVFMPVIGKRHEGKQLYTFGRIVIYIDRGVVFVQGEKTWVPTSLQSLIDMAK

Legend:
[1] = system: HIV-1 LTR promoter transactivation by HIV-1 Tat; experiment: Transactivation assay, HIV-1 LTR luciferase reporter with HIV-1 Tat; type: cell-based; conditions: HEK293 cells co-transfected with pHIV1LTR-Luc, HIV-1 Tat and the human ORF; relative luciferase activity 24 h post-transfection; positive if >=2 or <=0.5 and p<0.05
Summary of the method: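 HEK293 cells (10^4) were calcium-phosphate co-transfected with the HIV-1 LTR-luciferase reporter plus HIV-1 Tat, or the HTLV-1 LTR-luciferase reporter plus HTLV-1 Tax, each with a human ORF expression plasmid. A hit required relative activity ≥2 or ≤0.5 with paired t-test p<0.05.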

[2] = system: HTLV-1 LTR promoter transactivation by HTLV-1 Tax; experiment: Transactivation assay, HTLV-1 LTR luciferase reporter with HTLV-1 Tax; type: cell-based; conditions: HEK293 cells co-transfected with pHTLV1LTR-Luc, HTLV-1 Tax and the human ORF; relative luciferase activity 24 h post-transfection; positive if >=2 or <=0.5 and p<0.05

Molecule	HIV_LTR transactiv. [1]	HTLV_LTR transactiv. [2]
B1	0.49 fold change	0.23 fold change
B2	0.19 fold change	0.24 fold change
B3	3.78 fold change	0.29 fold change
B4	0.26 fold change	0.28 fold change
B5	0.19 fold change	0.45 fold change
